Measured values as given in patent US20120316071A1 (published 2012).

Columns and labels:
[1] = molecular target: T1, Recombinant Human DLL4 (delta-like protein 4) (human, UniProt Q9NR61 27-524); assay: ECL (MSD) 96-well plate assay, recombinant human DLL4 coated, Fab in solution
T1 construct: Bought recombinant human DLL4 (R&D Systems Cat#1506-D4/CF), coated on the plate; also called rHuman DLL4; Delta-like 4

[2] = molecular target: T1, Recombinant Human DLL4 (delta-like …); assay: ELISA, DLL4 coated plate, Fab in solution; average signal minus noise
[3] = molecular target: T2, Recombinant Human DLL4 (delta-like protein 4) (human, UniProt Q9NR61 27-524); assay: ELISA, plate-coated DLL4, Fab 3.125 nM
T2 construct: also called rHuman DLL4

[4] = molecular target: T2, Recombinant Human DLL4 (delta-like …); assay: ELISA, plate-coated DLL4, Fab 25 nM
[5] = molecular target: T2, Recombinant Human DLL4 (delta-like …); assay: ELISA, plate-coated DLL4, Fab 12.5 nM
[6] = molecular target: T2, Recombinant Human DLL4 (delta-like …); assay: ELISA, plate-coated DLL4, Fab 100 nM
[7] = molecular target: T2, Recombinant Human DLL4 (delta-like …); assay: ELISA, plate-coated DLL4, Fab 50 nM
[8] = molecular target: T2, Recombinant Human DLL4 (delta-like …); assay: ELISA, plate-coated DLL4, Fab 6.25 nM

Binder | ECL signal [1] | ELISA (Avgerage signal-noise) [2] | ELISA signal at 3.125 nM Fab [3] | ELISA signal at 25 nM Fab [4] | ELISA signal at 12.5 nM Fab [5] | ELISA signal at 100 nM Fab [6] | ELISA signal at 50 nM Fab [7] | ELISA signal at 6.25 nM Fab [8]
Fab VH1-46_IGHD6-6*01_IGHJ1*01 S102A/S103P/S104F/H111F (H:APFF) & L6_IGKJ1*01 S28N/S30D/S31H (L:NDH) (Fab, V domains shown, Parent template of this NNK series; Fab made in E. coli: heavy chain from Plasmid A (CH1, His6 and Flag tags), kappa light chain from Plasmid C (kappa CL); also called H:APFF & L:NDH) VH: QVQLVQSGAEVKKPGASVKVSCKASGYTFTSYYMHWVRQAPGQGLEWMGIINPSGGSTSYAQKFQGRVTMTRDTSTSTVYMELSSLRSEDTAVYYCAREEYAPFSAEYFQFWGQGTLVTVSS VL: EIVLTQSPATLSLSPGERATLSCRASQNVDHYLAWYQQKPGQAPRLLIYDASNRATGIPARFSGSGSGTDFTLTISSLEPEDFAVYYCQQRSNWPPWTFGQGTKVEIKR | 17200 | 0.214 |  |  |  |  |  | 
Fab VH1-46_IGHD6-6*01_IGHJ1*01 S102A/S103P/S104F/H111F (APFF) & L6_IGKJ1*01 S28N/S30D/S31H (NDH) (Fab, V domains shown, Fab made in E. coli: VH in plasmid A (CH1, His6 and Flag tags), VL in plasmid C (kappa CL); also called H:APFF & L:NDH; APFF / NDH) VH: QVQLVQSGAEVKKPGASVKVSCKASGYTFTSYYMHWVRQAPGQGLEWMGIINPSGGSTSYAQKFQGRVTMTRDTSTSTVYMELSSLRSEDTAVYYCAREEYAPFSAEYFQFWGQGTLVTVSS VL: EIVLTQSPATLSLSPGERATLSCRASQNVDHYLAWYQQKPGQAPRLLIYDASNRATGIPARFSGSGSGTDFTLTISSLEPEDFAVYYCQQRSNWPPWTFGQGTKVEIKR |  |  | 0.096 | 0.31 | 0.192 | 0.686 | 0.507 | 0.125
Fab VH1-46_IGHD6-6*01_IGHJ1*01 S102A/S103P/S104F/H111F (APFF) & L6_IGKJ1*01 S28N/S30D/S31H N53H (Fab, V domains shown, Fab made in E. coli: VH in plasmid A (CH1, His6 and Flag tags), VL in plasmid C (kappa CL); also called H:APFF & L:NDH N53H; APFF / NDH/N53H) VH: QVQLVQSGAEVKKPGASVKVSCKASGYTFTSYYMHWVRQAPGQGLEWMGIINPSGGSTSYAQKFQGRVTMTRDTSTSTVYMELSSLRSEDTAVYYCAREEYAPFSAEYFQFWGQGTLVTVSS VL: EIVLTQSPATLSLSPGERATLSCRASQNVDHYLAWYQQKPGQAPRLLIYDASHRATGIPARFSGSGSGTDFTLTISSLEPEDFAVYYCQQRSNWPPWTFGQGTKVEIKR |  |  | 0.089 | 0.238 | 0.167 | 0.608 | 0.416 | 0.109
Fab VH1-46_IGHD6-6*01_IGHJ1*01 S102A/S103P/S104F/H111F (APFF) & L6_IGKJ1*01 S28N/S30D/S31H A55S (Fab, V domains shown, Fab made in E. coli: VH in plasmid A (CH1, His6 and Flag tags), VL in plasmid C (kappa CL); also called H:APFF & L:NDH A55S; APFF / NDH/A55S) VH: QVQLVQSGAEVKKPGASVKVSCKASGYTFTSYYMHWVRQAPGQGLEWMGIINPSGGSTSYAQKFQGRVTMTRDTSTSTVYMELSSLRSEDTAVYYCAREEYAPFSAEYFQFWGQGTLVTVSS VL: EIVLTQSPATLSLSPGERATLSCRASQNVDHYLAWYQQKPGQAPRLLIYDASNRSTGIPARFSGSGSGTDFTLTISSLEPEDFAVYYCQQRSNWPPWTFGQGTKVEIKR |  |  | 0.108 | 0.407 | 0.258 | 0.858 | 0.588 | 0.154
Fab VH1-46_IGHD6-6*01_IGHJ1*01 S102A/S103P/S104F/H111F (APFF) & L6_IGKJ1*01 S28N/S30D/S31H A55G (Fab, V domains shown, Fab made in E. coli: VH in plasmid A (CH1, His6 and Flag tags), VL in plasmid C (kappa CL); also called H:APFF & L:NDH A55G; APFF / NDH/A55G) VH: QVQLVQSGAEVKKPGASVKVSCKASGYTFTSYYMHWVRQAPGQGLEWMGIINPSGGSTSYAQKFQGRVTMTRDTSTSTVYMELSSLRSEDTAVYYCAREEYAPFSAEYFQFWGQGTLVTVSS VL: EIVLTQSPATLSLSPGERATLSCRASQNVDHYLAWYQQKPGQAPRLLIYDASNRGTGIPARFSGSGSGTDFTLTISSLEPEDFAVYYCQQRSNWPPWTFGQGTKVEIKR |  |  | 0.093 | 0.316 | 0.198 | 0.814 | 0.51 | 0.125

Further lines, results first:

ECL signal [1] | ELISA (Avgerage signal-noise) [2] | ELISA signal at 3.125 nM Fab [3] | ELISA signal at 25 nM Fab [4] | ELISA signal at 12.5 nM Fab [5] | ELISA signal at 100 nM Fab [6] | ELISA signal at 50 nM Fab [7] | ELISA signal at 6.25 nM Fab [8] | Binder
 |  | 0.095 | 0.335 | 0.215 | 0.791 | 0.546 | 0.142 | Fab VH1-46_IGHD6-6*01_IGHJ1*01 S102A/S103P/S104F/H111F (APFF) & L6_IGKJ1*01 S28N/S30D/S31H S52L (Fab, V domains shown, Fab made in E. coli: VH in plasmid A (CH1, His6 and Flag tags), VL in plasmid C (kappa CL); also called H:APFF & L:NDH S52L; APFF / NDH/S52L) VH: QVQLVQSGAEVKKPGASVKVSCKASGYTFTSYYMHWVRQAPGQGLEWMGIINPSGGSTSYAQKFQGRVTMTRDTSTSTVYMELSSLRSEDTAVYYCAREEYAPFSAEYFQFWGQGTLVTVSS VL: EIVLTQSPATLSLSPGERATLSCRASQNVDHYLAWYQQKPGQAPRLLIYDALNRATGIPARFSGSGSGTDFTLTISSLEPEDFAVYYCQQRSNWPPWTFGQGTKVEIKR
9030 | 0.106 |  |  |  |  |  |  | Fab VH1-46_IGHD6-6*01_IGHJ1*01 S102A/S103P/S104F/H111F (H:APFF) & L6_IGKJ1*01 S28N/S30D/S31H A55R (Fab, V domains shown, Fab made in E. coli: heavy chain from Plasmid A (CH1, His6 and Flag tags), kappa light chain from Plasmid C (kappa CL); also called H:APFF & L:NDH A55R) VH: QVQLVQSGAEVKKPGASVKVSCKASGYTFTSYYMHWVRQAPGQGLEWMGIINPSGGSTSYAQKFQGRVTMTRDTSTSTVYMELSSLRSEDTAVYYCAREEYAPFSAEYFQFWGQGTLVTVSS VL: EIVLTQSPATLSLSPGERATLSCRASQNVDHYLAWYQQKPGQAPRLLIYDASNRRTGIPARFSGSGSGTDFTLTISSLEPEDFAVYYCQQRSNWPPWTFGQGTKVEIKR
14200 | 0.151 |  |  |  |  |  |  | Fab VH1-46_IGHD6-6*01_IGHJ1*01 S102A/S103P/S104F/H111F (H:APFF) & L6_IGKJ1*01 S28N/S30D/S31H N53A (Fab, V domains shown, Fab made in E. coli: heavy chain from Plasmid A (CH1, His6 and Flag tags), kappa light chain from Plasmid C (kappa CL); also called H:APFF & L:NDH N53A) VH: QVQLVQSGAEVKKPGASVKVSCKASGYTFTSYYMHWVRQAPGQGLEWMGIINPSGGSTSYAQKFQGRVTMTRDTSTSTVYMELSSLRSEDTAVYYCAREEYAPFSAEYFQFWGQGTLVTVSS VL: EIVLTQSPATLSLSPGERATLSCRASQNVDHYLAWYQQKPGQAPRLLIYDASARATGIPARFSGSGSGTDFTLTISSLEPEDFAVYYCQQRSNWPPWTFGQGTKVEIKR
8230 | 0.146 |  |  |  |  |  |  | Fab VH1-46_IGHD6-6*01_IGHJ1*01 S102A/S103P/S104F/H111F (H:APFF) & L6_IGKJ1*01 S28N/S30D/S31H A55C (Fab, V domains shown, Fab made in E. coli: heavy chain from Plasmid A (CH1, His6 and Flag tags), kappa light chain from Plasmid C (kappa CL); also called H:APFF & L:NDH A55C) VH: QVQLVQSGAEVKKPGASVKVSCKASGYTFTSYYMHWVRQAPGQGLEWMGIINPSGGSTSYAQKFQGRVTMTRDTSTSTVYMELSSLRSEDTAVYYCAREEYAPFSAEYFQFWGQGTLVTVSS VL: EIVLTQSPATLSLSPGERATLSCRASQNVDHYLAWYQQKPGQAPRLLIYDASNRCTGIPARFSGSGSGTDFTLTISSLEPEDFAVYYCQQRSNWPPWTFGQGTKVEIKR
20000 | 0.383 |  |  |  |  |  |  | Fab VH1-46_IGHD6-6*01_IGHJ1*01 S102A/S103P/S104F/H111F (H:APFF) & L6_IGKJ1*01 S28N/S30D/S31H A55S (Fab, V domains shown, Fab made in E. coli: heavy chain from Plasmid A (CH1, His6 and Flag tags), kappa light chain from Plasmid C (kappa CL); also called H:APFF & L:NDH A55S) VH: QVQLVQSGAEVKKPGASVKVSCKASGYTFTSYYMHWVRQAPGQGLEWMGIINPSGGSTSYAQKFQGRVTMTRDTSTSTVYMELSSLRSEDTAVYYCAREEYAPFSAEYFQFWGQGTLVTVSS VL: EIVLTQSPATLSLSPGERATLSCRASQNVDHYLAWYQQKPGQAPRLLIYDASNRSTGIPARFSGSGSGTDFTLTISSLEPEDFAVYYCQQRSNWPPWTFGQGTKVEIKR
18100 | 0.12 |  |  |  |  |  |  | Fab VH1-46_IGHD6-6*01_IGHJ1*01 S102A/S103P/S104F/H111F (H:APFF) & L6_IGKJ1*01 S28N/S30D/S31H N53P (Fab, V domains shown, Fab made in E. coli: heavy chain from Plasmid A (CH1, His6 and Flag tags), kappa light chain from Plasmid C (kappa CL); also called H:APFF & L:NDH N53P) VH: QVQLVQSGAEVKKPGASVKVSCKASGYTFTSYYMHWVRQAPGQGLEWMGIINPSGGSTSYAQKFQGRVTMTRDTSTSTVYMELSSLRSEDTAVYYCAREEYAPFSAEYFQFWGQGTLVTVSS VL: EIVLTQSPATLSLSPGERATLSCRASQNVDHYLAWYQQKPGQAPRLLIYDASPRATGIPARFSGSGSGTDFTLTISSLEPEDFAVYYCQQRSNWPPWTFGQGTKVEIKR
